From the supplement of paper PMC9876800

Test system: peptide library, one residue held at a place counted from the S/T acceptor
Test: relative phosphorylation of the sub-library (ratio to the mean residue at this position); higher = residue favoured
Settings: human
How it was run: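 Relative sub-library phosphorylation, a ratio to the mean residue at that position, was obtained by phosphorimaging and densitometry of spots on streptavidin membranes. Before capture, purified recombinant kinases were incubated for 90 min under kinase-specific conditions with 50 μM biotinylated degenerate peptide sub-libraries and 50 μM ATP spiked with γ-32P-ATP. Each sub-library fixed one residue at one position around a central Ser/Thr.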

MAP3K2, construct: Full length (from UniProt Q9Y2U5)
relative phosphorylation
Settings | at +1 | at +2 | at +3 | at +4 | at -1 | at -2 | at -3 | at -4 | at -5
A fixed | 1.01 | 0.873 | 0.802 | 1.04 | 1.04 | 1.2 | 0.975 | 1.07 | 1.12
D fixed | 0.302 | 0.413 | 0.63 | 0.567 | 1.08 | 1.6 | 1.61 | 1.5 | 1.37
E fixed | 0.296 | 0.344 | 0.477 | 0.691 | 0.935 | 0.953 | 1.53 | 1.43 | 1.16
F fixed | 0.82 | 0.696 | 1.46 | 0.775 | 0.673 | 1.1 | 0.782 | 1.01 | 0.923
G fixed | 0.868 | 0.663 | 0.865 | 0.981 | 1.41 | 1.27 | 1.65 | 1.23 | 1.22
H fixed | 0.954 | 2.2 | 1.06 | 0.983 | 1.36 | 1.1 | 0.891 | 1.02 | 1.06
I fixed | 1.59 | 0.632 | 1.09 | 0.877 | 0.549 | 0.82 | 0.608 | 0.73 | 0.828
K fixed | 0.721 | 1.51 | 1.09 | 1.9 | 1.19 | 0.765 | 0.988 | 0.946 | 1.07
L fixed | 1.29 | 0.694 | 1.16 | 0.918 | 0.904 | 0.704 | 0.698 | 0.749 | 0.743
M fixed | 1.82 | 1.02 | 1.1 | 0.947 | 1.11 | 0.866 | 0.937 | 0.898 | 0.869
N fixed | 0.614 | 0.902 | 0.914 | 0.703 | 1.17 | 0.829 | 1.08 | 0.96 | 0.883
P fixed | 0.409 | 0.403 | 0.574 | 1.25 | 0.643 | 0.838 | 1.03 | 1.02 | 0.992
Q fixed | 1.02 | 1 | 0.905 | 1.12 | 1.11 | 0.853 | 0.817 | 0.793 | 0.751
R fixed | 1.09 | 1.94 | 1.32 | 1.68 | 1.39 | 0.757 | 1.18 | 0.978 | 0.95
V fixed | 1.46 | 0.828 | 0.856 | 0.816 | 0.726 | 0.979 | 0.698 | 0.849 | 1.02
W fixed | 1.81 | 0.986 | 1.51 | 0.909 | 0.662 | 0.919 | 0.747 | 0.952 | 1.08
Y fixed | 0.926 | 1.89 | 1.2 | 0.853 | 1.04 | 1.46 | 0.778 | 0.868 | 0.959
pThr fixed | 0.643 | 0.47 | 0.597 | 0.761 | 0.708 | 1.3 | 1.91 | 1.23 | 1.59
pTyr fixed | 0.42 | 0.412 | 0.645 | 0.546 | 1.08 | 2.07 | 1.3 | 1 | 1.21

MAP3K3, construct: Full length (from UniProt Q99759)
relative phosphorylation
Settings | at +1 | at +2 | at +3 | at +4 | at -1 | at -2 | at -3 | at -4 | at -5
A fixed | 0.713 | 0.684 | 0.711 | 0.953 | 0.837 | 0.924 | 0.739 | 0.897 | 0.956
D fixed | 0.304 | 0.643 | 0.767 | 0.758 | 1.28 | 1.65 | 1.39 | 1.38 | 1.12
E fixed | 0.322 | 0.539 | 0.758 | 1.04 | 1.01 | 0.958 | 1.37 | 1.23 | 1.01
F fixed | 1.32 | 0.884 | 1.38 | 0.916 | 0.902 | 1.09 | 0.946 | 0.955 | 1.11
G fixed | 0.603 | 0.488 | 0.904 | 0.904 | 1.25 | 0.969 | 1.33 | 0.913 | 0.916
H fixed | 0.779 | 2.55 | 1.03 | 0.859 | 1.24 | 0.984 | 0.918 | 0.982 | 1.13
I fixed | 1.77 | 0.745 | 1.01 | 0.961 | 0.747 | 1.02 | 0.876 | 0.892 | 0.869
K fixed | 0.516 | 1.42 | 1.19 | 1.7 | 1.18 | 0.591 | 0.998 | 1.1 | 1.15
L fixed | 1.49 | 0.808 | 1.2 | 0.821 | 0.922 | 0.794 | 0.851 | 0.93 | 0.895
M fixed | 1.74 | 1.05 | 1.11 | 0.953 | 0.943 | 1.01 | 0.902 | 1.05 | 0.944
N fixed | 0.48 | 1.03 | 0.992 | 0.962 | 1.3 | 0.932 | 1.04 | 1.01 | 1.03
P fixed | 0.34 | 0.255 | 0.361 | 0.982 | 0.482 | 0.728 | 0.723 | 0.736 | 0.744
Q fixed | 0.686 | 0.898 | 0.75 | 1.07 | 0.834 | 0.838 | 0.77 | 0.741 | 0.842
R fixed | 0.796 | 1.67 | 1.15 | 1.35 | 1.54 | 0.915 | 1.28 | 1.09 | 1.05
V fixed | 1.43 | 0.841 | 0.861 | 0.734 | 0.684 | 1.13 | 0.971 | 0.916 | 0.925
W fixed | 2.59 | 0.994 | 1.57 | 1.02 | 0.849 | 1.15 | 0.981 | 1.07 | 1.21
Y fixed | 1.11 | 1.5 | 1.26 | 1.02 | 1.01 | 1.31 | 0.912 | 1.1 | 1.08
pThr fixed | 1.12 | 1.39 | 0.824 | 1.37 | 1.23 | 2.17 | 2.37 | 1.82 | 2.48
pTyr fixed | 0.626 | 0.691 | 1.06 | 0.783 | 1.56 | 2.52 | 1.7 | 1.02 | 1.63
